According to the supplement of paper PMC5998384:

Legend:
HeLa Kyoto [1] = assay: melting temperature (median over replicates), in situ; higher = more thermally stable
HeLa Kyoto [2] = assay: solubility in G1/S (NP-40 vs SDS abundance) (log2 ratio); higher = more soluble; details: cell cycle stage: G1/S
HeLa Kyoto [3] = assay: thermal stability score vs G1/S (z-score of summed log2 fold changes over temperatures); higher = more thermally stable than in G1/S
HeLa Kyoto [4] = assay: solubility change mitosis vs G1/S (difference of NP-40 vs SDS log2 ratios) (log2 ratio difference); higher = more soluble in mitosis
[5] = cell cycle stage: early G1 (4.5 h after nocodazole release)
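Wherever melting temperature (median over replicates), in situ is given: HeLa Kyoto cells synchronized by double thymidine or nocodazole block, proteins quantified by TMT10plex mass spectrometry, three independent biological replicates.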
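Wherever solubility change mitosis vs G1/S (difference of NP-40 vs SDS log2 ratios) is given: synchronized HeLa Kyoto cells (double thymidine block for G1/S, nocodazole release for mitosis), protein amounts in NP-40 versus SDS lysates quantified by mass spectrometry, three biological replicates.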
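Wherever solubility in G1/S (NP-40 vs SDS abundance) is given: HeLa Kyoto cells arrested at G1/S by double thymidine block, proteins quantified by TMT10plex mass spectrometry in mild NP-40 versus SDS extracts, three biological replicates.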
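Wherever thermal stability score vs G1/S (z-score of summed log2 fold changes over temperatures) is given: synchronized HeLa Kyoto cells, proteins quantified by TMT10plex mass spectrometry, three biological replicates, mitosis taken 0.5 h after nocodazole release, G1/S directly after double thymidine block.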

Sequence	melting temperature (HeLa Kyoto [1]; cell cycle stage: G1/S) [°C]	melting temperature (HeLa Kyoto [1]; cell cycle stage: mitosis) [°C]	solubility in G1/S (log2) (HeLa Kyoto [2])	thermal stability score (HeLa Kyoto [3]; [5])	thermal stability score (HeLa Kyoto [3]; cell cycle stage: mitosis)	solubility change mitosis (log2) (HeLa Kyoto [4])
MASVWQRLGFYASLLKRQLNGGPDVIKWERRVIPGCTRSIYSATGKWTKEYTLQTRKDVEKWWHQRIKEQASKISEADKSKPKFYVLSMFPYPSGKLHMGHVRVYTISDTIARFQKMRGMQVINPMGWDAFGLPAENAAVERNLHPQSWTQSNIKHMRKQLDRLGLCFSWDREITTCLPDYYKWTQYLFIKLYEAGLAYQKEALVNWDPVDQTVLANEQVDEHGCSWRSGAKVEQKYLRQWFIKTTAYAKAMQDALADLPEWYGIKGMQAHWIGDCVGCHLDFTLKVHGQATGEKLTAYTATPEAIYGTSHVAISPSHRLLHGHSSLKEALRMALVPGKDCLTPVMAVNMLTQQEVPVVILAKADLEGSLDSKIGIPSTSSEDTILAQTLGLAYSEVIETLPDGTERLSSSAEFTGMTRQDAFLALTQKARGKRVGGDVTSDKLKDWLISRQRYWGTPIPIVHCPVCGPTPVPLEDLPVTLPNIASFTGKGGPPLAMASEWVNCSCPRCKGAAKRETDTMDTFVDSAWYYFRYTDPHNPHSPFNTAVADYWMPVDLYIGGKEHAVMHLFYARFFSHFCHDQKMVKHREPFHKLLAQGLIKGQTFRLPSGQYLQREEVDLTGSVPVHAKTKEKLEVTWEKMSKSKHNGVDPEEVVEQYGIDTIRLYILFAAPPEKDILWDVKTDALPGVLRWQQRLWTLTTRFIEARASGKSPQPQLLSNKEKAEARKLWEYKNSVISQVTTHFTEDFSLNSAISQLMGLSNALSQASQSVILHSPEFEDALCALMVMAAPLAPHVTSEIWAGLALVPRKLCAHYTWDASVLLQAWPAVDPEFLQQPEVVQMAVLINNKACGKIPVPQQVARDQDKVHEFVLQSELGVRLLQGRSIKKSFLSPRTALINFLVQD [LARS2]	49.7	49.9	-0.045	0.0823	0.851	-0.0972
MSDTLTADVIGRRVEVNGEHATVRFAGVVPPVAGPWLGVEWDNPERGKHDGSHEGTVYFKCRHPTGGSFIRPNKVNFGTDFLTAIKNRYVLEDGPEEDRKEQIVTIGNKPVETIGFDSIMKQQSQLSKLQEVSLRNCAVSCAGEKGGVAEACPNIRKVDLSKNLLSSWDEVIHIADQLRHLEVLNVSENKLKFPSGSVLTGTLSVLKVLVLNQTGITWAEVLRCVAGCPGLEELYLESNNIFISERPTDVLQTVKLLDLSSNQLIDENQLYLIAHLPRLEQLILSDTGISSLHFPDAGIGCKTSMFPSLKYLVVNDNQISQWSFFNELEKLPSLRALSCLRNPLTKEDKEAETARLLIIASIGQLKTLNKCEILPEERRRAELDYRKAFGNEWKQAGGHKDPEKNRLSEEFLTAHPRYQFLCLKYGAPEDWELKTQQPLMLKNQLLTLKIKYPHQLDQKVLEKQLPGSMTIQKVKGLLSRLLKVPVSDLLLSYESPKKPGREIELENDLKSLQFYSVENGDCLLVRW [TBCE]	47.9	48.4	0.308	-0.0546	1.48	-0.101
MRNLKLFRTLEFRDIQGPGNPQCFSLRTEQGTVLIGSEHGLIEVDPVSREVKNEVSLVAEGFLPEDGSGRIVGVQDLLDQESVCVATASGDVILCSLSTQQLECVGSVASGISVMSWSPDQELVLLATGQQTLIMMTKDFEPILEQQIHQDDFGESKFITVGWGRKETQFHGSEGRQAAFQMQMHESALPWDDHRPQVTWRGDGQFFAVSVVCPETGARKVRVWNREFALQSTSEPVAGLGPALAWKPSGSLIASTQDKPNQQDIVFFEKNGLLHGHFTLPFLKDEVKVNDLLWNADSSVLAVWLEDLQREESSIPKTCVQLWTVGNYHWYLKQSLSFSTCGKSKIVSLMWDPVTPYRLHVLCQGWHYLAYDWHWTTDRSVGDNSSDLSNVAVIDGNRVLVTVFRQTVVPPPMCTYQLLFPHPVNQVTFLAHPQKSNDLAVLDASNQISVYKCGDCPSADPTVKLGAVGGSGFKVCLRTPHLEKRYKIQFENNEDQDVNPLKLGLLTWIEEDVFLAVSHSEFSPRSVIHHLTAASSEMDEEHGQLNVSSSAAVDGVIISLCCNSKTKSVVLQLADGQIFKYLWESPSLAIKPWKNSGGFPVRFPYPCTQTELAMIGEEECVLGLTDRCRFFINDIEVASNITSFAVYDEFLLLTTHSHTCQCFCLRDASFKTLQAGLSSNHVSHGEVLRKVERGSRIVTVVPQDTKLVLQMPRGNLEVVHHRALVLAQIRKWLDKLMFKEAFECMRKLRINLNLIYDHNPKVFLGNVETFIKQIDSVNHINLFFTELKEEDVTKTMYPAPVTSSVYLSRDPDGNKIDLVCDAMRAVMESINPHKYCLSILTSHVKKTTPELEIVLQKVHELQGNAPSDPDAVSAEEALKYLLHLVDVNELYDHSLGTYDFDLVLMVAEKSQKDPKEYLPFLNTLKKMETNYQRFTIDKYLKRYEKAIGHLSKCGPEYFPECLNLIKDKNLYNEALKLYSPSSQQYQDISIAYGEHLMQEHMYEPAGLMFARCGAHEKALSAFLTCGNWKQALCVAAQLNFTKDQLVGLGRTLAGKLVEQRKHIDAAMVLEECAQDYEEAVLLLLEGAAWEEALRLVYKYNRLDIIETNVKPSILEAQKNYMAFLDSQTATFSRHKKRLLVVRELKEQAQQAGLDDEVPHGQESDLFSETSSVVSGSEMSGKYSHSNSRISARSSKNRRKAERKKHSLKEGSPLEDLALLEALSEVVQNTENLKDEVYHILKVLFLFEFDEQGRELQKAFEDTLQLMERSLPEIWTLTYQQNSATPVLGPNSTANSIMASYQQQKTSVPVLDAELFIPPKINRRTQWKLSLLD [IKBKAP]	50.2	50	-0.206	0.962	-0.0976	-0.15
MADAASQVLLGSGLTILSQPLMYVKVLIQVGYEPLPPTIGRNIFGRQVCQLPGLFSYAQHIASIDGRRGLFTGLTPRLCSGVLGTVVHGKVLQHYQESDKGEELGPGNVQKEVSSSFDHVIKETTREMIARSAATLITHPFHVITLRSMVQFIGRESKYCGLCDSIITIYREEGILGFFAGLVPRLLGDILSLWLCNSLAYLVNTYALDSGVSTMNEMKSYSQAVTGFFASMLTYPFVLVSNLMAVNNCGLAGGCPPYSPIYTSWIDCWCMLQKEGNMSRGNSLFFRKVPFGKTYCCDLKMLI [MTCH2]	56.6	57	0.00924	-2.66	-2.99	-0.018
MAAAVAAAGRLGWLFAALCLGNAAGEAAPGPRVLGFCLEEDGAAGAGWVRGGAARDTPDATFLLRLFGPGFANSSWSWVAPEGAGCREEAASPAGEWRALLRLRLRAEAVRPHSALLAVRVEPGGGAAEEAAPPWALGLGAAGLLALAALARGLQLSALALAPAEVQVLRESGSEAERAAARRLEPARRWAGCALGALLLLASLAQAALAVLLYRAAGQRAVPAVLGSAGLVFLVGEVVPAAVSGRWTLALAPRALGLSRLAVLLTLPVALPVGQLLELAARPGRLRERVLELARGGGDPYSDLSKGVLRCRTVEDVLTPLEDCFMLDASTVLDFGVLASIMQSGHTRIPVYEEERSNIVDMLYLKDLAFVDPEDCTPLSTITRFYNHPLHFVFNDTKLDAVLEEFKRGKSHLAIVQKVNNEGEGDPFYEVLGLVTLEDVIEEIIRSEILDESEDYRDTVVKRKPASLMAPLKRKEEFSLFKVSDDEYKVTISPQLLLATQRFLSREVDVFSPLRISEKVLLHLLKHPSVNQEVRFDESNRLATHHYLYQRSQPVDYFILILQGRVEVEIGKEGLKFENGAFTYYGVSALTVPSSVHQSPVSSLQPIRHDLQPDPGDGTHSSAYCPDYTVRALSDLQLIKVTRLQYLNALLATRAQNLPQSPENTDLQVIPGSQTRLLGEKTTTAAGSSHSRPGVPVEGSPGRNPGV [CNNM3]	52.3	51.3	0.0405	-0.222	-0.298	-0.00872
MSIFPKISLRPEVENYLKEGFMNKEIVTALGKQEAERKFETLLKHLSHPPSFTTVRVNTHLASVQHVKNLLLDELQKQFNGLSVPILQHPDLQDVLLIPVIGPRKNIKKQQCEAIVGAQCGNAVLRGAHVYAPGIVSASQFMKAGDVISVYSDIKGKCKKGAKEFDGTKVFLGNGISELSRKEIFSGLPELKGMGIRMTEPVYLSPSFDSVLPRYLFLQNLPSALVSHVLNPQPGEKILDLCAAPGGKTTHIAALMHDQGEVIALDKIFNKVEKIKQNALLLGLNSIRAFCFDGTKAVKLDMVEDTEGEPPFLPESFDRILLDAPCSGMGQRPNMACTWSVKEVASYQPLQRKLFTAAVQLLKPEGVLVYSTCTITLAENEEQVAWALTKFPCLQLQPQEPQIGGEGMRGAGLSCEQLKQLQRFDPSAVPLPDTDMDSLREARREDMLRLANKDSIGFFIAKFVKCKST [NSUN6]	51.8	51.4	0.29	-0.273	0.177	-0.179
